Tested on: K4 kissing-loop RNA reporter
Assay: apparent KD of K4 kissing-loop reporter; higher = weaker reporter binding
Conditions: Eterna round: R107
Protocol: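 RNA-MaP round R107: designed RNA switches with theophylline, tryptophan, arginine or FMN aptamers are transcribed on-chip within common flanks. They are titrated with a labelled K4 kissing-loop RNA reporter in RNA-MaP buffer (100 mM Tris pH 7.5, 80 mM KCl, 4 mM MgCl2), without ligand or with the indicated ligand. Median apparent KD per design.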

[1] = input ligand: theophylline 20 uM
[2] = input ligand: tryptophan 2.4 mM
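Note: bound reporter read as fluorescence of individual clusters on recovered sequencing chips by microscopy, with normalized cluster intensities fitted with a binding model.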

UGUGUUUACCUGACUCAGUGAUGUUGAGAAGGAGCGUGCUAAGGCACAGGUAGGUCGCUCAACCUAAAUUCAGGUGAGCACUAAA
apparent KD of K4 kissing-loop reporter (input ligand: FMN 200 uM): 305 nM
apparent KD of K4 kissing-loop reporter (input ligand: arginine 13.2 mM): 351 nM
apparent KD of K4 kissing-loop reporter (input ligand: none): 197 nM
apparent KD of K4 kissing-loop reporter [1]: 274 nM
apparent KD of K4 kissing-loop reporter [2]: 207 nM

UGUUAUGUAUCAGGAUAUUAGUGAUGUUUGUUUAUGUUAGUGAUGUUGAUAUUUGUUUUAUGUAUUUAAGAAGGGAUUGAGAUGU [dcdmullin]
apparent KD of K4 kissing-loop reporter (input ligand: FMN 200 uM): 55.4 nM
apparent KD of K4 kissing-loop reporter (input ligand: arginine 13.2 mM): 19.8 nM
apparent KD of K4 kissing-loop reporter (input ligand: none): 45.1 nM
apparent KD of K4 kissing-loop reporter [1]: 27.7 nM
apparent KD of K4 kissing-loop reporter [2]: 50.9 nM

UGUUUUUACUGAAGGAGCGGCAAUUGAUACGUAGAUAUAGUGAUGUUAUAUAAGAUAGAGAGCCAGGUAGGUCGCAGAUUUUUUC [ExArgB.Y]
apparent KD of K4 kissing-loop reporter (input ligand: FMN 200 uM): 179 nM
apparent KD of K4 kissing-loop reporter (input ligand: arginine 13.2 mM): 201 nM
apparent KD of K4 kissing-loop reporter (input ligand: none): 164 nM
apparent KD of K4 kissing-loop reporter [1]: 172 nM
apparent KD of K4 kissing-loop reporter [2]: 136 nM

UUAAGGGUCCGAGGAUAUCUCCCAGUGAUGUUGGGCGAUACGGCCCUUAAGACUAAUGGUUGAAGGAGAGAAGGCGGCUCCCGAU [Edmaisle]
apparent KD of K4 kissing-loop reporter (input ligand: FMN 200 uM): 146 nM
apparent KD of K4 kissing-loop reporter (input ligand: arginine 13.2 mM): 120 nM
apparent KD of K4 kissing-loop reporter (input ligand: none): 128 nM
apparent KD of K4 kissing-loop reporter [1]: 136 nM
apparent KD of K4 kissing-loop reporter [2]: 112 nM

UUAAUAAUUCAAGGAUAUGUUUUUUUUUUCGAGUGAUGUUCGGAAUUAAUAAAUUUAAAAGAUUAUACAGAAGGUGAUAAAUAGU [Cynwulf-mod#1]
apparent KD of K4 kissing-loop reporter (input ligand: FMN 200 uM): 103 nM
apparent KD of K4 kissing-loop reporter (input ligand: arginine 13.2 mM): 91 nM
apparent KD of K4 kissing-loop reporter (input ligand: none): 88.3 nM
apparent KD of K4 kissing-loop reporter [1]: 103 nM
apparent KD of K4 kissing-loop reporter [2]: 88.6 nM

UUACAGCCCAGUGAUGUUGGGUAGCGGCGGCGAGGACCGGUACGGCCGCCACUCGGCGCACAGGCGGAGUGAUGUUUUGCUUAAA [Same State Tryptophan A GF 11]
apparent KD of K4 kissing-loop reporter (input ligand: FMN 200 uM): 718 nM
apparent KD of K4 kissing-loop reporter (input ligand: arginine 13.2 mM): 590 nM
apparent KD of K4 kissing-loop reporter (input ligand: none): 894 nM
apparent KD of K4 kissing-loop reporter [1]: 927 nM
apparent KD of K4 kissing-loop reporter [2]: 476 nM

UUACAGGAACAAGGAUAUGGCGUUGUAGUGAUGUUACAGCGAAGAGCUCCACGCGAUCGGACAAAACCAGAAGGUGUAUGGAAUC [theeternabot_exclusion_KL_FMN_B_42]
apparent KD of K4 kissing-loop reporter (input ligand: FMN 200 uM): 155 nM
apparent KD of K4 kissing-loop reporter (input ligand: arginine 13.2 mM): 108 nM
apparent KD of K4 kissing-loop reporter (input ligand: none): 127 nM
apparent KD of K4 kissing-loop reporter [1]: 116 nM
apparent KD of K4 kissing-loop reporter [2]: 112 nM

UUACUACCCAGUGAUGUUGGGUAGCGGCGGCGAGGACCGGUACGGCCGCCACUCGGCGCACGGGAGUGAUGUUCCUAAGAAUAAA [Same State Tryptophan A GF 9]
apparent KD of K4 kissing-loop reporter (input ligand: FMN 200 uM): 295 nM
apparent KD of K4 kissing-loop reporter (input ligand: arginine 13.2 mM): 306 nM
apparent KD of K4 kissing-loop reporter (input ligand: none): 335 nM
apparent KD of K4 kissing-loop reporter [1]: 350 nM
apparent KD of K4 kissing-loop reporter [2]: 140 nM

UUACUGCCCAGUGAUGUUGGGUAUCGGCGGCGAGGACCGGUACGGCCGCCACUCGGCGCACAGGCGGAGUGAUGUUUCGCUUAAA [Same State Tryptophan A GF 12]
apparent KD of K4 kissing-loop reporter (input ligand: FMN 200 uM): 621 nM
apparent KD of K4 kissing-loop reporter (input ligand: arginine 13.2 mM): 539 nM
apparent KD of K4 kissing-loop reporter (input ligand: none): 627 nM
apparent KD of K4 kissing-loop reporter [1]: 631 nM
apparent KD of K4 kissing-loop reporter [2]: 186 nM

UUAGCUCUAUAGAGCAAGAGGUAUACUGAUACCAGAGGCUAUAGCCUCCCUUGGCAGCGGAACGAGUGAUGUUCGAAACCUCAUU [AK5 SS Theophylline A]
apparent KD of K4 kissing-loop reporter (input ligand: FMN 200 uM): 754 nM
apparent KD of K4 kissing-loop reporter (input ligand: arginine 13.2 mM): 898 nM
apparent KD of K4 kissing-loop reporter (input ligand: none): 940 nM
apparent KD of K4 kissing-loop reporter [1]: 799 nM
apparent KD of K4 kissing-loop reporter [2]: 526 nM

UUAUAUUUUAUAUUUAGUAGAGCUCUAGCUCGAGGACCGGUACGGCCGCCACUCGAGUGAUGUUCGAGUGGAAGAGCUCUACAUU [AK3.1 EXC Tryptophan A]
apparent KD of K4 kissing-loop reporter (input ligand: FMN 200 uM): 114 nM
apparent KD of K4 kissing-loop reporter (input ligand: arginine 13.2 mM): 99.9 nM
apparent KD of K4 kissing-loop reporter (input ligand: none): 110 nM
apparent KD of K4 kissing-loop reporter [1]: 98.2 nM
apparent KD of K4 kissing-loop reporter [2]: 435 nM

UUCCUAUUAUUAACACUAUAUACAACUGAAGGAGCGACAAUAAAGUCAGGUAGGUCGCAGAAUUAAUGAGUGAUGUUCAUUUUUA [JR_ExcArginiA_Sub013]
apparent KD of K4 kissing-loop reporter (input ligand: FMN 200 uM): 81.9 nM
apparent KD of K4 kissing-loop reporter (input ligand: arginine 13.2 mM): 141 nM
apparent KD of K4 kissing-loop reporter (input ligand: none): 96.6 nM
apparent KD of K4 kissing-loop reporter [1]: 124 nM
apparent KD of K4 kissing-loop reporter [2]: 60.9 nM

UUCCUCAUGGUAGUGAUGUUGCCGCCCGAUACCAGUCGACGUAUUGACCCUUGGCAGCGGAUCAAGUCCGAUUAAUUUUUUGGUC [theeternabot_sameState_KL_Theo_A_5]
apparent KD of K4 kissing-loop reporter (input ligand: FMN 200 uM): 216 nM
apparent KD of K4 kissing-loop reporter (input ligand: arginine 13.2 mM): 190 nM
apparent KD of K4 kissing-loop reporter (input ligand: none): 217 nM
apparent KD of K4 kissing-loop reporter [1]: 320 nM
apparent KD of K4 kissing-loop reporter [2]: 196 nM

UUCUACGAGUGAUGUUCGUAGUGUAAUAGCUAGGAUAUCGUUUUUUCGAGAAGGAGCUUCGAAGUGAUACGAAAGUAUCGCUUCG [FMN A 12]
apparent KD of K4 kissing-loop reporter (input ligand: FMN 200 uM): 227 nM
apparent KD of K4 kissing-loop reporter (input ligand: arginine 13.2 mM): 369 nM
apparent KD of K4 kissing-loop reporter (input ligand: none): 349 nM
apparent KD of K4 kissing-loop reporter [2]: 264 nM

UUGAGCCUGACGAAAGUCAGGCUCUGCGAGCGAGGACCGGUACGGCCGCCACUCGGUGCAGUGAUGUUGCAUGGCCGCAAGGCCG [#2 Exclusion - Tryptophan A Attempt #14 (HarryS)]
apparent KD of K4 kissing-loop reporter (input ligand: FMN 200 uM): 309 nM
apparent KD of K4 kissing-loop reporter (input ligand: arginine 13.2 mM): 300 nM
apparent KD of K4 kissing-loop reporter (input ligand: none): 289 nM
apparent KD of K4 kissing-loop reporter [1]: 312 nM
apparent KD of K4 kissing-loop reporter [2]: 456 nM

UUGCCCGAUGGAGAUACCAGCAGUUGUGCAGUGAUGUUGCACAAGUACUCGCUCCAUUGCUGCCCUUGGCAGCUCCCGGCGAAAA [Reoraren]
apparent KD of K4 kissing-loop reporter (input ligand: FMN 200 uM): 95.9 nM
apparent KD of K4 kissing-loop reporter (input ligand: arginine 13.2 mM): 79.7 nM
apparent KD of K4 kissing-loop reporter (input ligand: none): 84.7 nM
apparent KD of K4 kissing-loop reporter [1]: 92.4 nM
apparent KD of K4 kissing-loop reporter [2]: 81.3 nM

UUGCUUCUACUAGGAUAUCAUCAGUCAUGUUCAAUGACACUCGAGUGAUGUUCGAUAGAAGCGAGAUGAGAAGGAGUACAAGCAG [FMB B SS t3]
apparent KD of K4 kissing-loop reporter (input ligand: FMN 200 uM): 374 nM
apparent KD of K4 kissing-loop reporter (input ligand: arginine 13.2 mM): 48.8 nM
apparent KD of K4 kissing-loop reporter (input ligand: none): 159 nM
apparent KD of K4 kissing-loop reporter [1]: 118 nM
apparent KD of K4 kissing-loop reporter [2]: 70.7 nM

— the supplement of paper PMC9170038
